Entries after “also recorded” stand apart in the source; their conditions may differ. Read-outs that look alike come from different tables or passages of the source.

Series [1] relates to AsPC-1 cells. The series can be described thus: Gemcitabine co-treatment, MTT cell death assay. The following applies: Homo sapiens, ASPC1, 72 h. It is filed as cell-based. On the procedure: Gemcitabine co-treatment: 10,000 AsPC-1 cells/well were seeded into 96 well flat bottom plate and incubated overnight at in a humidified incubator at 37° C. with 5% CO2. Media in wells were replaced by serum free RPMI medium containing 2.33 μM GSM-192 or PBS and 0.05, 0.1, 0.5, 1, 5, 10, 40 and 80-μM gemcitabine. The plates were further incubated for 72 hours in a humidified incubator at 37° C. with 5% CO2. MTT solutions (M5655 SIGMA) was added at 10% of total culture volume (0.5 mg/ml MTT in RPMI/IMDM without phenol red) and after 3 hours incubation, plate was washed with PBS and solubilized using MTT solvent (0.1 N HCl in anhydrous isopropanol). The read out was obtained at […]. Cell death data was plotted as a function of the log of Gemcitabine concentration and fitted on a variable slope sigmoidal regression model (GraphPad prism 8.3.0). Further, an average of IC50 from 3 experimental repeats and corresponding standard deviation was calculated.
A general note: Tetrazolium assays rely on reduction of a dye to a coloured formazan, in cell work by metabolically active cells.

Series [2] concerns AsPC-1 cells. The series can be described thus: FACS Annexin-V apoptosis detection assay. The following applies: AsPC-1, 24 h, increasing dose. It is filed as cell-based, human. On the procedure: FACS Annexin-V apoptosis detection assay: 70% confluent cells in 6 cm plates were treated with sterile GSM-192 Fab fragment/control anti LOXL-2 Fab fragment for 24 h and prepared for FACS using the Annexin-V FITC apoptosis detection kit (E Biosciences 88-8005-72) as described previously^53. The FACS acquisition was done using FACS LSR-II machine in Cell Quant software (Becton Dickinson) and further analysis on FlowJo software (Treestar, Inc., San Carlos, Calif.).

In a further series the test system is FasL in AsPC-1 cells. The series is described as follows: Western blot of FasL expression in cell lysates. It is filed as cell-based, human. The following applies: AsPC-1 cell lysates, 24 hours, sub lethal concentrations. The protocol: Western Blots: Treated cells were lysed with RIPA buffer containing protease inhibitors and shaken intermittently while stored in ice for 30 min. The debris was removed by centrifugation at 14,000×g and supernatant was used for BCA protein determination assay. Alternatively, culture supernatants were concentrated at least 10 times using 0.2 μm centricons. Once normalized to equal protein content, sample buffer was added and heated for 3 minutes at 95° C. The denatured samples were centrifuged for 5 min at 14,000×g before 25 μL was loaded onto SDS page gel and standard blotting procedures were followed (General Protocol for Western Blotting, BioRad bulletin 6376). Primary Abs used were MMP-7 (abcam, ab5706), Fas-L (abcam, ab15285), α Tubulin Ab (sc31779).
Anti LOXL-2 (Lysyl Oxidase like 2) mAb33, produced in a similar pipeline was used as an isotype control. […] To test for molecular markers of apoptosis, Fas ligand expression was analysed by Western blot analysis. AsPC-1 cells were treated with GSM-192 Fab for 24 hours at sub lethal concentrations.
For orientation: In western blotting, separated proteins are transferred to a membrane and probed.

The next series has as its target MMP-14 (Homo sapiens, UniProt P50281). The series can be described thus: Enzymatic activity of related MMPs (fluorogenic peptide). It is filed as biochemical. The following applies: in vitro. On the procedure:
(§1) MMP-7 enzymatic kinetic assay: The enzymatic activity of MMP-7 in the presence of GSM-192 Fab was measured at 37° C. by monitoring the hydrolysis of fluorogenic peptide Mca-Pro-Leu-Gly-Leu-Dpa-Ala-Arg-NH2 (SEQ ID NO: 10) at λex=340 nm and […] as described previously^30. A range of different concentrations of GSM-192 Fab (0-200 nM) were incubated with 10 nM of MMP-7 in 50 mM Tris-HCl buffer (pH 7.5 at 37° C.), 100 mM NaCl, 5 mM CaCl2, and 0.05% Brij-35 for 2 h at 37° C. The enzymatic reaction was initiated by addition of the fluorogenic peptide to a final concentration of 10 μM. Fluorescence was recorded immediately and continuously for 30 min.
(§2) Remarkably, considering that the immunization booster also included the common zinc motif, the antibody is fully selective for MMP-7. The effect of GSM-192 Fab fragment on the enzymatic activity of human MMP-7 was examined in vitro using a short fluorogenic peptide according to a standard protocol. The enzymatic activity of recombinant active MMP-7 was measured in the presence of increasing concentrations of the Fab fragment of GSM-192. […] Simultaneously the effect of the antibody on catalytic activity of related MMPs was measured.

The target in the next series is MMP-9 (Homo sapiens, UniProt P14780). Described as above. The following applies: in vitro. It is filed as biochemical. On the procedure:
as §1, §2

The target of a further series is MMP-12 (Homo sapiens, UniProt P39900). The series is described as above. The following applies: in vitro. It is filed as biochemical. On the procedure: as §1, §2
MMP-12, sequence (P39900 106-470): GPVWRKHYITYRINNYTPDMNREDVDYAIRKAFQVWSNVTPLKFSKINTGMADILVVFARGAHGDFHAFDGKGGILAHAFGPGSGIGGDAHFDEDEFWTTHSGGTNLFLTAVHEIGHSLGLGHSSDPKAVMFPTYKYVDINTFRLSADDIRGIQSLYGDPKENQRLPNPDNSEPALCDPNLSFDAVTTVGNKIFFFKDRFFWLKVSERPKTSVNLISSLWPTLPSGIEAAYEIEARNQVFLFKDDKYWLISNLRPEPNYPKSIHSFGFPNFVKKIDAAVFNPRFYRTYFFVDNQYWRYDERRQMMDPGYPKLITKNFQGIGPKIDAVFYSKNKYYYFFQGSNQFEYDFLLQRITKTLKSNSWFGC

MMP-9, sequence (P14780 94-707, species assumed): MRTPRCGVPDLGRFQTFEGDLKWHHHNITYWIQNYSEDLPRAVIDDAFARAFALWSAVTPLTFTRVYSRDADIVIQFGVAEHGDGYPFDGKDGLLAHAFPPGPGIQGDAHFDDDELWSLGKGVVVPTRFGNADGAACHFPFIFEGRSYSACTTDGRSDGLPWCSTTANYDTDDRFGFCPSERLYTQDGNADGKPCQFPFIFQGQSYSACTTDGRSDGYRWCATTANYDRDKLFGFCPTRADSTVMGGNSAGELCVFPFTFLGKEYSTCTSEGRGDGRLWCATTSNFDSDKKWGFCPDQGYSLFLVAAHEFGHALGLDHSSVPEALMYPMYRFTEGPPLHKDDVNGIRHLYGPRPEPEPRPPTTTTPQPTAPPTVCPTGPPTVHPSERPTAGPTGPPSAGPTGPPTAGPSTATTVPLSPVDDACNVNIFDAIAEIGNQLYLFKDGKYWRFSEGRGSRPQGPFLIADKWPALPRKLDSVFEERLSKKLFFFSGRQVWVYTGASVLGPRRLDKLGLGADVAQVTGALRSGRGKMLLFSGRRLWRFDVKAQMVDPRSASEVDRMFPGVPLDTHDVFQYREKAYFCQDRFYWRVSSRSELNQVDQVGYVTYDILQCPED

Regarding `Nc1ccn([C@@H]2O[C@H](CO)[C@@H](O)C2(F)F)c(=O)n1` [GEM, gemcitabine], the IC50 worked out at 127 ± 40.5 nM with AsPC-1 cells [1] (GEM+PBS group, 72 hours) and 14.2 ± 1.52 nM in the series on AsPC-1 cells [1] (co-treatment with 2.33 uM GSM-192, 72 hours, read-out: IC50 of GEM).

B1: GSM-192 Fab: Fab fragment of GSM-192 obtained by papain digestion (antibody, V domains shown)
VL: DIVTQSPASLAVSLGQRATISCRASESFDSYGNTFVHWYQQKPGQPPKLLIYLVSNLESGVPAGFRGRGSRTDFTLTIDPVEADDAATYYCQQNNEDPYTFGGGTKLEIKRA
VH: EVQLQQSGPELVKPGASVKIPCKASGYTFTDYNMDWMKQSHGKSLEWIGHINPNNGGTFYNQKFKDKATFIVDKSSNTAYMELRSLTSEDTAVYFCARGGGLRRGPFAYWGQGTLVTVS
On to B1, for which, in the series with AsPC-1 cells [2], the “Annexin V related apoptosis” value is “induce cell death via apoptosis; also recorded: increased Annexin V related apoptosis”. In addition, the FasL expression result is recorded as “increase of Fas ligand (FasL) expression” in the series with FasL in AsPC-1 cells and “overall increase in FasL levels” with FasL in AsPC-1 cells (listed as anti MMP-7 Fab). The “effect on catalytic activity of MMP-14” value in the series with MMP-14 was “only negligibly affected”. In addition, the “effect on catalytic activity of MMP-9” value with MMP-9 is listed as “not affected”. Also, the “effect on catalytic activity of MMP-12” value in the series with MMP-12 is “not affected”.

The term IC50 denotes the concentration that gives 50% inhibition.

(Values after patent US12291578B2, “Anti-matrix metalloproteinase 7 (MMP-7) inhibitory antibody and uses thereof” (Yeda Research and Development Co. Ltd., priority 2019, dated 2025).)
